# Assay results as given in paper PMC7509637 (Advanced Science, 2020).
# “Also recorded” adds a separate entry of the source.
# How the values were obtained:
# Aβ [1] = molecular target: T1, Aβ (Homo sapiens, UniProt P05067); assay: ThT kinetic assay of Aβ fibrillization (seeding with FapC species, Aβ seeds, bLgS); format: biochemical; conditions: 37 °C, n = 3; for effect on Aβ fibrillization (ThT): Aβ 50 × 10^−6 M, seeds/FapC species 5 × 10^−6 M, ThT fluorescence ex 445/em 485 nm; for effect on rate constant k of Aβ (in words): 5 × 10^−6 M with Aβ 50 × 10^−6 M, FapCS *, p < 0.05, FapC monomer and fibrils **, p < 0.005
# T1 construct: purchased Anaspec Inc
# Description: FapC seeds (FapCS) were produced by FapC fibrils of three different ages. The FapC monomers were produced as described^[ ^45 ^] and stored in 6 M GdmCl. Prior to fibrillization, the FapC monomers were purified via a PD10 desalting column. FapC monomers (1 mg mL^−1 or 40 × 10^−6 M) were incubated in deionized water at 37 °C for 1 week to produce mature fibrils and at 37 °C or 25 °C for 4 d to obtain young fibrils. Deionized water was used to make FapC fibrils as it is convenient to transfer the samples to other experimental conditions, i.e., buffered Aβ solution or PBS for in vivo microinjection. However, bacterial amyloids like FapC and curli can make amyloids over a range of conditions.^[ ^93 ^] FapCS were produced by sonicating an aqueous solution of FapC fibrils (10 × 10^−6 M) at 20 power of a probe sonicator (Sonics Vibracell: 750 watts and 20 kHz) for 2 min with 1 s on/off cycle. For in vitro cross‐seeding experiments, 50 × 10^−6 M of Aβ monomers were incubated with 5 × 10^−6 M of FapCS (10:1 molar ratio, Aβ:FapCS) at 37 °C. bLg amyloids were synthesized by heating of bLg monomers (80 °C, pH 2) of 10 mg mL^−1 solution for 24 h. Prior to the production of bLgS, the bLg amyloid solution was brought to pH 7 and then sonicated, similar to FapC, to generate bLgS.
# Aβ (Anaspec Inc., purity ≥ 95%) was dissolved in 100 µL of hexafluoro‐2‐propanol (HFIP) and incubated at room temperature for 3 h. The acquired aliquots of this solution were freeze dried and stored at −20 °C for further experimentation. […] For the ThT kinetic assay, a 100 µL of aqueous solution containing Aβ (50 × 10^−6 M), FapCS or bLgS (5 × 10^−6 M) and ThT dye (100 × 10^−6 M) was incubated (37 °C) in a 96‐well plate. The ThT fluorescence (excitation: 445 nm/ emission: 485 nm) was recorded at specified time intervals for 50 h. Kinetic parameters (rate constant k, half‐life t 1/2 and lag‐time) were calculated as described.^[ ^94 ^] Briefly, kinetic curves were fitted to a sigmoidal curve =y0+ymax−y0/1+e^−(t−t1/2)k , where y 0 and y max are initial and final ThT fluorescence values, allowing us to calculate lag time = t 1/2 − 2/k.
# Aβ [2] = molecular target: T1, Aβ; assay: Static light scattering (SLS) of Aβ fibrillar growth; format: biochemical; conditions: ratio as for ThT assay, Malvern Zetasizer Nano, n = 3
# Description: Increases in the size of Aβ in the presence and absence of FapCS or bLgS were monitored by SLS. Solution of Aβ with FapCS or bLgS, at a similar ratio as for the ThT assay, was prepared and incubated. SLS measurements were performed at different time intervals using a Malvern Zetasizer Nano. The parameters were fixed at 7 for attenuator and 4.20 mm for cell position. Quartz cells with low volume capacity (100 µL) were used. The light scattering intensities (kilo counts per sec) and the refractive indices of the samples, buffer alone and toluene were measured.
# Aβ [3] = molecular target: T1, Aβ; assay: TEM imaging of Aβ with FapC species or bLgS; conditions: 12 h incubation, uranyl acetate negative stain
# Description: (§1) Aβ incubated in the presence or absence of FapCS, FapC monomers, FapC fibrils or bLgS were subjected to TEM imaging. After incubation for 12 h, a drop of sample was applied on a glow‐discharged carbon‐coated copper grid. After 1 min, the sample was blotted and then negatively stained with uranyl acetate (1%) for 30 s. The dried grid was then imaged with a Technei F20 TEM at 200 kV. For AFM, a drop of sample was placed on freshly cleaved mica surface and rinsed with water after 2 min and dried with pressurized air. The sample was scanned with an AFM (Nanoscope VIII Multimode Scanning Force Microscopes, Bruker), covered with an acoustic hood to minimize the vibrational noise. Images were acquired under the tapping mode with a silicon nitride cantilever (Bruker). AFM images were processed with Nanoscope Analysis 1.5 software to flatten the background and to calculate the statistical parameters.
# Aβ [4] = molecular target: T1, Aβ; assay: Circular dichroism spectroscopy, secondary structure; conditions: incubation with Aβ, Figure S7
# Description: Solutions of 200 µL, at similar molar ratios as for ThT assay, were prepared and incubated at 37 °C. CD spectra for different samples at 0, 12 and 48 h were measured with a CD spectrophotometer (Jasco) from 190 to 240 nm (1 nm step size). The percentage secondary structure was calculated by the CD data via Dichroweb analysis with parameters of Contin/reference set 4.^[ ^95 ^]
# Aβ monomers = assay: Isothermal titration calorimetry (ITC); format: binding; conditions: Aβ 200 × 10^−6 M into 20 × 10^−6 M seeds, 0.1% NH4OH, 25 °C
# Description: ITC (Malvern MicroCal iTC200) was used to explore the interaction between Aβ monomers and oligomers (Aβo) with FapCS. Sample solutions were degassed at 25 °C while stirring (100 rpm). Aβ (200 × 10^−6 M, 40 µL) was filled into the syringe while FapCS or bLgS (20 × 10^−6 M, 200 µL) were filled in the cell (coin shaped). 0.1% NH4OH buffer solution was used for both solutions. Aβ was injected into the cell at an injection volume of 2 µL at the duration of 4 s and with a spacing of 180 s. First injection was 0.2 µL for 0.4 s duration and a total of 16 injections were programed. The heat exchange was recorded with a Microcal analysis (origin v7) software. The heat of dilution (Aβ against buffer) was subtracted from the interaction heat of samples. The acquired curves were fitted to a sequential binding model and thermodynamic parameters of binding energy (ΔH), free energy (ΔG), and entropic factor (TΔS) were calculated. Aβo for the ITC experiments was prepared by incubating Aβ aqueous solution (200 × 10^−6 M) at 4 °C for 48 h.^[ ^65 ^]
# Aβ fibrils = assay: AFM of fibrils, FiberApp statistical analysis
# Description: as §1
Molecule,effect on Aβ fibrillization (ThT) (Aβ [1]),Aβ fibrillar growth by SLS (Aβ [2]),TEM observation (Aβ [3]),effect on secondary structure (in words) (Aβ [4]),binding to Aβ by ITC (in words) (Aβ monomers),effect on rate constant k of Aβ (in words) (Aβ [1]),pitch size of fibrils (Aβ fibrils; FiberApp) [nm],"fibril diameter (Aβ fibrils; from fibril heights, mean ± SD) [nm]"
bLgS: seeds from whey protein β‐lactoglobulin amyloids by sonication [reference compound],did not render any acceleration of Aβ fibrillization,did not render any acceleration of Aβ fibrillization,did not render any acceleration of Aβ fibrillization,did not induce β‐sheet formation in Aβ; also recorded: α‐helical and random‐coil structures of bLgS were slightly increased,Insubstantial binding,,,
"FapC monomers: monomeric FapC, purified via a PD10 desalting column (protein) GNEGGWHPPKPNPQSNNKGGATALVVDTQQNYNNKVSNFGTLNNASVSGSIKDASGNVGVNVAAGDNNQQANAAALASADASFVFGTATASTSVLQSGYGNTLNNYSNPNTASLSNSANNVSGNLGVNVAAGNFNQQKNDLAAAVSNGQYSTAGSAASQTSTGNTTVNSANYAYGGTYVSLKLNADGSYKGTSDQIGDVYLDTWEGQTHPGGSNTGHIDVDSQAQGAKDLNHDGGAFAFKEKGDVDLKGTVSGFIPAIVGFKTPVTNNASLSNSLQNVSGNVGVNIAAGGGNQQSNSLSIAAGCSSCPAGGESLGF",lacked such acceleratory effect,,appeared to aggregate on top of Aβ fibrils,,,significantly suppressed,,
"FapC fibrils: FapC incubated in deionized water at 37 °C for 1 week, nonsonicated fibrils (protein) GNEGGWHPPKPNPQSNNKGGATALVVDTQQNYNNKVSNFGTLNNASVSGSIKDASGNVGVNVAAGDNNQQANAAALASADASFVFGTATASTSVLQSGYGNTLNNYSNPNTASLSNSANNVSGNLGVNVAAGNFNQQKNDLAAAVSNGQYSTAGSAASQTSTGNTTVNSANYAYGGTYVSLKLNADGSYKGTSDQIGDVYLDTWEGQTHPGGSNTGHIDVDSQAQGAKDLNHDGGAFAFKEKGDVDLKGTVSGFIPAIVGFKTPVTNNASLSNSLQNVSGNVGVNIAAGGGNQQSNSLSIAAGCSSCPAGGESLGF",lacked such acceleratory effect; also recorded: significantly suppressed,,did not coat FapC fibrils,,,significantly suppressed,26,3.6 ± 1.0
"FapCS derived from younger FapC fibrils: seeds from FapC fibrils fibrillated for 4 d at 37 °C and 25 °C (protein, UniProt Q9I2F0 25-340, looked up, sonicated fibril seeds, seeds from FapC fibrils fibrillated for 4 d at 37 °C and 25 °C) Functional amyloid subunit …: GNEGGWHPPKPNPQSNNKGGATALVVDTQQNYNNKVSNFGTLNNASVSGSIKDASGNVGVNVAAGDNNQQANAAALASADASFVFGTATASTSVLQSGYGNTLNNYSNPNTASLSNSANNVSGNLGVNVAAGNFNQQKNDLAAAVSNGQYSTAGSAASQTSTGNTTVNSANYAYGGTYVSLKLNADGSYKGTSDQIGDVYLDTWEGQTHPGGSNTGHIDVDSQAQGAKDLNHDGGAFAFKEKGDVDLKGTVSGFIPAIVGFKTPVTNNASLSNSLQNVSGNVGVNIAAGGGNQQSNSLSIAAGCSSCPAGGESLGF","accelerated Aβ fibrillization (Figure S3, Supporting Information), but less than the seeds derived from mature FapC fibrils",,,,,,,
